Laboratory results published in patent US20240151714A1 (AJOU UNIVERSITY INDUSTRY ACADEMIC COOPERATION FOUNDATION, published 2024).

Key:
[1] = molecular target: thrombin (ab62452; Abcam) (human, UniProt P00734 328-622); test: PPR-based homogeneous assay, specificity test (trastuzumab-DNA1 with pertuzumab-DNA2)
Procedure: (§1) In a homogeneous assay to detect the target substance, samples were mixed with four conjugates (TEVP-first DNA′, BLZ-second DNA′, first binder-first DNA agent, second binder-second DNA) and […] CENTA™ (EMD Millipore, USA) in a reaction buffer (137 mM NaCl, 2.7 mM KCl, 10 mM Na₂HPO₄, 2 mM KH₂PO₄, 40 mM MgCl₂, 10 mM DTT, 0.5% (w/v) BSA, and pH 7.4). Hydrolysis of CENTA™ by β-lactamase was monitored by measuring absorbance (A₄₀₅) at 405 nm using a plate reader (synergy HT multi-detection reader; BioTek Instruments, USA) at 37° C. for 1 hour. The absorbance signal (ΔAbs=A₄₀₅ at 60 min−A₄₀₅ at 1 min) was plotted as a function of the concentration of the target substance. All experiments were performed at least three times and the limit of detection (LOD) was calculated as the sum of the mean ΔAbs of the blank and three times the standard deviation. In the competitive immunoassay for small molecule detection, an antibody against the target was further contained in the reaction solution. The following proteins were used as targets: HER2 (extracellular domain; 10004-H₀₈H; Sino Biological, China), cTnI protein (ab207624; Abcam, United Kingdom), thrombin (ab62452; Abcam), digoxigenin (D9026; Sigma, USA), digoxigenin polyclonal antibody (PA1-85378; Thermo Fisher Scientific, USA) and hCG monoclonal antibody (MA5-14680; Thermo Fisher Scientific).

[2] = molecular target: T1, cTnI protein (ab207624; Abcam) (UniProt P19429 1-210, limits assumed); test: as above
T1 construct: also called cardiac troponin I
Procedure: as §1

T1 sequence (P19429 whole entry): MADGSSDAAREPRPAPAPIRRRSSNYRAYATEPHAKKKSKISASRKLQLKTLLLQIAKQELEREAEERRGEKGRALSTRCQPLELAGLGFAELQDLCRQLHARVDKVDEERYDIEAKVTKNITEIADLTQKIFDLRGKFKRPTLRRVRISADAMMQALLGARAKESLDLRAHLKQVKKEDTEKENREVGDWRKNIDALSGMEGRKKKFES

B1: pertuzumab-second DNA conjugate (antibody, V domains shown)
VH: EVQLVESGGGLVQPGGSLRLSCAASGFTFTDYTMDWVRQAPGKGLEWVADVNPNSGGSIYNQRFKGRFTLSVDRSKNTLYLQMNSLRAEDTAVYYCARNLGPSFYFDYWGQGTLVTVSS
VL: DIQMTQSPSSLSASVGDRVTITCKASQDVSIGVAWYQQKPGKAPKLLIYSASYRYTGVPSRFSGSGSGTDFTLTISSLQPEDFATYYCQQYYIYPYTFGQGTKVEIKR
modifications: amine groups conjugated to amine-modified second DNA (SEQ ID NO: 2) via a bis-NHS ester linker; heterogeneous product, sites not stated
notes: IgG made in HEK293F cells and conjugated to ssDNA; also called pertuzumab-DNA2; P-D2
- binding result [1]: no binding (tested: 10 nM)
- binding result [2]: no binding (tested: 10 nM)
